# According to PMC5951680:
# Target: zebrafish TRPC4 (TRPC4DR) (Danio rerio (zebrafish))
# Assay: cryo-EM structure; TRPC4DR in amphipols A8-35, unliganded (apo), closed state; buffer C (PBS pH 7.4, 1 mM TCEP); 0.25 mg/ml on the grid; C4 symmetry imposed; 3.6 Å
substance,measurement,value
zebrafish TRPC4 (TRPC4DR) (natural protein),stoichiometry N,4
